From patent US20230086603A1 (BOLT BIOTHERAPEUTICS, published 2023)

B1: 14 (antibody, V domains shown)
VH: QVQLVQSGAEVKKPGASVKVSCKASGYRFTTYYVHWVRQAPGQGLEWMGWMNPNTVYTGSAQKFQGRVTMTRDTSTSTVYMELSSLRSEDTAVYYCAREGWGSSGYFDYWGQGTLVTVSS
VL: DIQMTQSPSSLSASVGDRVTITCQASQDISNYLNWYQQKPGKAPKLLIYAASSLQSGVPSRFSGSGSGTDFTLTISSLQPEDFATYYCQQSFTNPVTFGGGTKVEIK
B2: 23 (antibody, V domains shown)
VH: QVQLVQSGAEVKKPGASVKVSCKASGYTFTGYYMHWVRQAPGQGLEWMGWISPNSGVTDFTQKFQGRVTMTRDTSTSTVYMELSSLRSEDTAVYYCARESWSGEFDYWGQGTLVTVSS
VL: DIQMTQSPSSLSASVGDRVTITCRASQSITTYLNWYQQKPGKAPKLLIYAASSLQGGVPSRFSGSGSGTDFTLTISSLQPEDFATYYCQQSYSTPYTFGQGTKVEIK
B3: 22 (antibody, V domains shown)
VH: QVQLVQSGAEVKKPGASVKVSCKASGYTFTGYTLHWVRQAPGQGLEWMGWIDPNSGVTSSAQKFQGRVTMTRDTSTSTVYMELSSLRSEDTAVYYCARESEVMMAYFQHWGQGTLVTVSS
VL: DIQMTQSPSSLSASVGDRVTITCQASQDISSYLNWYQQKPGKAPKLLIYAASSLQTGVPSRFSGSGSGTDFTLTISSLQPEDFATYYCQQSYSTPYTFGQGTKLEIK
B4: 17 (antibody, V domains shown)
VH: QVQLVQSGAEVKKPGASVKVSCKASGDTFTRHYVHWVRQAPGQGLEWMGWMSPSSGITGYAQKFQGRVTMTRDTSTSTVYMELSSLRSEDTAVYYCARVRWSSDAFDIWGQGTLVTVSS
VL: not shown
B5: 11 (antibody, V domains shown)
VH: QVQLVQSGAEVKKPGASVKVSCKASGYTFTNYYIHWVRQAPGQGLEWLGWMNPNGDVAGYADSFQGRVTMTRDTSTSTVYMELSSLRSEDTAVYYCAIDSSGWMRNDAFDIWGQGTLVTVSS
VL: DIQMTQSPSSLSASVGDRVTITCRASQGISQYLAWYQQKPGKAPKLLIYGASNLHSGVPSRFSGSGSGTDFTLTISSLQPEDFATYYCQQTFITPLTFGGGTKVEIK
B6: 2 (antibody, V domains shown)
VH: QVQLVQSGAEVKKPGASVKVSCKASGYTFTSYYMHWVRQAPGQGLEWMGWMNPNSDIAGYAQKFQGRVTMTRDTSTSTVYMELSSLRSEDTAVYYCAIPSIVGAYDAFDIWGQGTLVTVSS
VL: DIQMTQSPSSLSASVGDRVTITCRASQSISSWLAWYQQKPGKAPKLLIYAASSLQSGVPSRFSGSGSGTDFTLTISSLQPEDFATYYCQQSYTTPITFGGGTKVEIK
B7: 19 (antibody, V domains shown)
VH: QVQLVQSGAEVKKPGASVKVSCKASGYTFTSHYMHWVRQAPGQGLEWMGWMNPNSGNTGYAQKFQGRVTMTRDTSTSTVYMELSSLRSEDTAVYYCARERFLGGMDVWGQGTTVTVSS
VL: DIQMTQSPSSLSASVGDRVTITCRASQSITGWLAWYQQKPGKAPKLLIYAASSLQSGVPSRFSGSGSGTDFTLTISSLQPEDFATYYCQQSYSTPYTFGQGTKVEIK
B8: 29 (antibody, V domains shown)
VH: QVQLVQSGAEVKKPGASVKVSCKASGYTFSNSYMHWVRQAPGQGLEWMGWMDPSSGYTGSAHKFQGRVTMTRDTSTSTVYMELSSLRSEDTAVYYCAEDSGGAFDIWGQGTMVTVSS
VL: DIQMTQSPSSLSASVGDRVTITCRASEHIANWLAWYQQKPGKAPKLLIYGVSSLESGVPSRFSGSGSGTDFTLTISSLQPEDFATYYCQQSYSTPYTFGQGTKLEIK
B9: 24 (antibody, V domains shown)
VH: QVQLVQSGAEVKKPGASVKVSCKASGDTFTNHYMHWVRQAPGQGLEWMGWMNPNSGHTGYAQRFQGRVTMTRDTSTSTVYMELSSLRSEDTAVYYCAREAVAGPMDVWGQGTTVTVSS
VL: not shown
B10: 28 (antibody, V domains shown)
VH: QVQLVQSGAEVKKPGASVKVSCKASGYTFTSYYMHWVRQAPGQGLEWMGWMNPNSGNTGYAQKFQGRVTMTRDTSTSTVYMELSSLRSEDTAVYYCARERFAGGMDAWGQGTTVTVSS
VL: EIVMTQSPATLSVSPGERATLSCRASQSLSSSSLAWYQQKPGQAPRLLIYGASTRATGIPARFSGSGSGTEFTLTISSLQSEDFAVYYCQQYGSSPFTFGPGTKVDIK
B11: 25 (antibody, V domains shown)
VH: QVQLVQSGAEVKKPGASVKVSCKASGYTFTGYYMHWVRQAPGQGLEWMGWMNPNSDIAGYAQKFQGRVTMTRDTSTSTVYMELSSLRSEDTAVYYCARDAWELLAFDIWGQGTLVTVSS
VL: DIQMTQSPSSLSASVGDRVTITCRASQSVSTWLAWYQQKPGKAPKLLIYAASNLESGVPSRFSGSGSGTDFTLTISSLQPEDFATYYCQQSYSTPYTFGQGTKLEIK
B12: 20 (antibody, V domains shown)
VH: QVQLVQSGAEVKKPGASVKVSCKASGYTFTDYYMHWVRQAPGQGLEWMGWMHPNSGHTGYAQKFQGRVTMTRDTSTSTVNMELSSLRSEDTAVYYCAREEWLGHFQHWGQGTLVTVSS
VL: DIQMTQSPSSLSASVGDRVTITCRASQSISSWLAWYQQKPGKAPKLLIYDATHLETGVPSRFSGSGSGTDFTLTISSLQPEDFATYYCQQSYSTPITFGQGTRLEIK
B13: 26 (antibody, V domains shown)
VH: QVQLAQSGAEVKKPGASVKVSCKASGYTFTNHYMHWVRQAPGQGLEWMGWMNPNSGNTGYAQKFQGRVTMTRDTSTSTVYMELSSLRSEDTAVYYCARDRWDGDYYSAWGQGTLVTVSS
VL: DIQMTQSPSSLSASVGDRVTITCRASQSISNWLAWYQQKPGKAPKLLIYDVSHLESGVPSRFSGSGSGTDFTLTISSLQPEDFATYYCQQSYSTPFTFGPGTKVDIK
B14: 9 (antibody, V domains shown)
VH: QVQLVQSGAEVKKPGASVKVSCKASGHSFTHYYMHWVRQAPGQGLEWMGWMNPDSGSTGYAQKFQGRVTMTRDTSTSTVYMELSSLRSEDTAVYYCARALFPYPFYYYYMDVWGQGTLVTVSS
VL: DIQMTQSPSSLSASVGDRVTITCRASQGIRNDLGWYQQKPGKAPKLLIYSASNLQSGVPSRFSGSGSGTDFTLTISSLQPEDFATYYCQQANSFPFTFGGGTKVEIK
B15: 1 (antibody, V domains shown)
VH: QVQLVQSGAEVKKPGASVKVSCKASGGTFSSYAISWVRQAPGQGLEWMGVINPSAGSTDYAQKFQGRVTMTRDTSTSTVYMELSSLRSEDTAVYYCARDLYPYVVVVAAGSYGMDVWGQGTLVTVSS
VL: DIQMTQSPSSLSASVGDRVTITCRASQGIDSYLAWYQQKPGKAPKLLIYAASSLQSGVPSRFSGSGSGTDFTLTISSLQPEDFATYYCQQSYSTPITFGGGTKVEIK
B16: 13 (antibody, V domains shown)
VH: QVQLVQSGAEVKKPGASVKVSCKASGYPFTSYYMHWVRQAPGQGLEWMGWMNPNSDIAGYAQKFQGRVTMTRDTSTSTVYMELSSLRSEDTAVYYCAREGRHGEYLYWGQGTLVTVSS
VL: DIQMTQSPSSLSASVGDRVTITCRASQIISSYLNWYQQKPGKAPKLLIYAASSLQSGVPSRFSGSGSGTDFTLTISSLQPEDFATYYCQQGFSTPFTFGGGTKVEIK
B17: 16 (antibody, V domains shown)
VH: QVQLVQSGAEVKKPGSSVKVSCKASGGTFSSYAISWVRQAPGQGLEWMGGIIPIFGTANYAQKFQGRVTITADESTSTAYMELSSLRSEDTAVYYCARGGYSYGSFQHWGQGTLVTVSS
VL: DIQMTQSPSSLSASVGDRVTITCRASQGISNNLNWYQQKPGKAPKLLIYAATTLQSGVPSRFSGSGSGTDFTLTISSLQPEDFATYYCQQSYSTPYTFGGGTKVEIK
B18: 18 (antibody, V domains shown)
VH: QVQLVQSGAEVKKPGASVKVSCKASGYTFTSYYMHWVRQAPGQGLEWVGWMTPSTGNAGYAQKFQGRVTMTRDTSTSTVYMELSSLRSEDTAVYYCAREEWLGHFQHWGQGTLVTVSS
VL: DIQMTQSPSSLSASVGDRVTITCRASQGISNGLSWYQQKPGKAPKLLIYAASTLQSGVPSRFSGSGSGTDFTLTISSLQPEDFATYYCQQSHSTPLTFGGGTKVEIK
B19: 27 (antibody, V domains shown)
VH: QVQLVQSGAEVKKPGASVKVSCKASGYTFTNYYIHWVRQAPGQGLEWMGWMSPNGGNTGYAQKFQGRVTMTRDTSTSTVYMELSSLRSEDTAVYYCARESWELTGFDYWGQGTLVTVSS
VL: DIQMTQSPSSLSASVGDRVTITCQASQGISNYLAWYQQKPGKAPKLLIYDASSLQSGVPSRFSGSGSGTDFTLTISSLQPEDFATYYCQQSYSTPLTFGGGTKVEIK
B20: 36 (antibody, V domains shown)
VH: QVQLVQSGAEVKKPGSSVKVSCKASGGTFSTFGISWVRQAPGQGLEWMGGIIPIFGTANYAQKFQGRVTITADESTSTAYMELSSLRSEDTAVYYCARGGYSYGSFDYWGQGTLVTVSS
VL: DIQMTQSPSSLSASVGDRVTITCRASQGISNNLNWYQQKPGKAPKLLIYATSTLQSGVPSRFSGSGSGTDFTLTISSLQPEDFATYYCQQSYSTPYTFGQGTKVEIK
B21: 12 (antibody, V domains shown)
VH: QVQLVQSGAEVKKPGASVKVSCKASGGTFSNYMYHWVRQAPGQGLEWMGWISTYHGSTNYAQKFQGRVTMTRDTSTSTVYMELSSLRSEDTAVYYCARDARGYSGYDLWGQGTLVTVSS
VL: DIQMTQSPSSLSASVGDRVTITCRASQIIGNYLAWYQQKPGKAPKLLIYHASILETGVPSRFSGSGSGTDFTLTISSLQPEDFATYYCQQSYSTPTFGGGTKVEIK

Target: T1, human PD-L1 (hPD-L1) (human, UniProt Q9NZQ7 19-290)
T1 construct: Endogenous hPD-L1 on JIMT1 (JIMT-1) cells; also called programmed death-ligand 1; CD274
Test: flow cytometry on JIMT-1 cells expressing endogenous human PD-L1; anti-human IgG Fc secondary; geometric MFI
Experimental: Binding of the binding agents of an embodiment of the invention to human PD-L1 (hPD-L1) on cell surfaces was assessed by incubating the binding agents with JIMT1 cells that express endogenous hPD-L1. Briefly, the binding agents were diluted serially in FACS buffer (PBS+1% FBS+5 mM EDTA, pH 7.4) at 4° C. Diluted binding agents were applied to JIMT1 cells (˜1×10⁵-2×10⁵ per well) and incubated at 4° C. […] After unbound secondary antibody was washed out, cells were resuspended in FACS buffer plus 2% formaldehyde and analyzed by flow cytometry. The intensity of fluorescence, expressed as geometric mean fluorescence intensity, was used to determine anti-PDL1 binding agent binding to hPD-L1 on cell surface.

T1 sequence (Q9NZQ7 19-290 limits assumed): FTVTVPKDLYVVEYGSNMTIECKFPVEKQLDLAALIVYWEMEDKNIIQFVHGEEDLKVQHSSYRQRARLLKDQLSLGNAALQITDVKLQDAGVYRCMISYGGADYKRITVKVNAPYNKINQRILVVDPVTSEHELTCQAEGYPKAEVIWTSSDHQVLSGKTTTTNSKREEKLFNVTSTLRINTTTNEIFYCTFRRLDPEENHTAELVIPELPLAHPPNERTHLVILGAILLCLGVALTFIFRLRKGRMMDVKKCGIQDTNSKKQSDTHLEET

Binding result, binds:
B1
B2
B3
B4
B5
B6
B7
B8
B9
B10
B11
B12
B13
B14
B15
B16
B17
B18
B19
B20
B21
